B1: CPEB3 Ribozyme (parent)
chain: GGGGGCCACAGCAGAAGCGUUCACGUCGCGGCCCCUGUCAGAUUCUGGUGAAUCUGCGAAUUCUGCUGU

Variants of: B1
Experiment: self-cleavage, relative activity (ratio to wild type); higher = more cleavage; co-transcriptional

Row | Variant | self-cleavage
1 | C12G C27G | 0.1
2 | G11C C18G | 0.0784
3 | G11U G14A | 0.131
4 | G11C G65A | 0.559
5 | C12A G65C | 0.841
6 | C12A C34U | 0.834
7 | A13C C34A | 0.511
8 | A13C C34U | 0.929
9 | A13C C29G | 0.141
10 | A13C C45U | 0.876
11 | C12U G58C | 1.01
12 | C12U A15C | 0.389
13 | A13C A52G | 0.823
14 | C12A A23C | 0.6
15 | C12U U55A | 0.756
16 | C12U A40U | 0.643
17 | C12U A60U | 0.374
18 | C12U G56C | 0.554
19 | C12U G56U | 0.802
20 | C12G A13G | 0.48
21 | G11C U49G | 0.866
22 | G11C U49C | 0.803
23 | G11C G25U | 0.0946
24 | C12G U44A | 0.727

Row | Variant | self-cleavage
25 | G11C U43G | 0.279
26 | G11U U26G | 0.635
27 | G11U G47U | 0.941
28 | G11C U53G | 0.415
29 | A13C G47A | 0.922
30 | A13C C22G | 0.149
31 | A13C C22A | 0.0721
32 | C12U U46G | 1
33 | C12A G31U | 0.258
34 | C12A G31A | 0.419
35 | C12A G31C | 0.219
36 | C12G U43G | 0.361
37 | A13C A15U | 0.145
38 | A13C A15C | 0.264
39 | C12G G14C | 0.0732
40 | C12G G14A | 0.127
41 | C12G G14U | 0.118
42 | C12U C66G | 0.556
43 | C12U C66U | 0.798
44 | G11U G31A | 0.746
45 | C12U C27G | 0.174
46 | C12G A60U | 0.367
47 | G11C A60C | 0.299
48 | C12G C24A | 0.374

Row | Variant | self-cleavage
49 | C12G C24U | 0.435
50 | C12G C24G | 0.199
51 | C12U A51C | 0.977
52 | G11A U43C | 0.658
53 | G11A U43A | 0.442
54 | G11A U43G | 0.4
55 | C12U U43A | 0.868
56 | C12A G48U | 0.8
57 | C12G U69C | 1.06
58 | C12A C18A | 0.139
59 | G11C C45G | 0.767
60 | G11C U20G | 0.169
61 | A13C A23C | 0.83
62 | G11U G68A | 0.932
63 | G11U A15G | 0.779
64 | G11U A15C | 0.531
65 | G11U A60G | 0.497
66 | G11U A60U | 0.281
67 | G11U A60C | 0.234
68 | G11C A13U | 0.209
69 | G11C A13C | 0.175
70 | G11C A13G | 0.558
71 | G11U G41C | 0.197
72 | G11U A59U | 0.395

Row | Variant | self-cleavage
73 | G11U A59C | 0.35
74 | C12A C63U | 0.364
75 | C12A C63A | 0.336
76 | C12A G58A | 0.62
77 | C12A C33U | 0.671
78 | G11U A51C | 0.669
79 | G11U G65A | 0.682
80 | C12G U61C | 0.282
81 | G11U G28A | 0.125
82 | G11U C33U | 0.948
83 | G11C C24G | 0.114
84 | G11U C63A | 0.418
85 | C12G C29G | 0.152
86 | C12G G68A | 0.972
87 | C12G G68C | 0.832
88 | C12A U46A | 0.804
89 | C12G U64G | 0.395
90 | C12G U64C | 0.566
91 | C12A C66U | 0.723
92 | G11U U64C | 0.498
93 | G11U U64G | 0.447
94 | A13C C35A | 0.281
95 | C12U U69A | 1.02
96 | C12U U69G | 1.05

Row | Variant | self-cleavage
97 | C12G C35A | 0.326
98 | C12G C35G | 0.369
99 | C12U G68C | 1.01
100 | C12G C34G | 0.69
101 | C12U U21C | 0.9
102 | A13C A42C | 0.602
103 | G11U U43C | 0.768
104 | C12A C35G | 0.189
105 | C12G A51U | 0.854
106 | G11C G68U | 0.881
107 | C12G G48C | 0.949
108 | C12U U67C | 0.978
109 | G11U A52C | 0.761
110 | G11U A52U | 0.851
111 | C12A U26G | 0.447
112 | C12A U26A | 0.374
113 | G11U U21G | 0.196
114 | G11U U21C | 0.541
115 | C12G A23G | 0.721
116 | C12G A23C | 0.628
117 | C12G A23U | 0.55
118 | C12U C29A | 0.451
119 | C12U U38A | 0.88
120 | C12G A59U | 0.4

Row | Variant | self-cleavage
121 | A13C G30A | 0.497
122 | G11U A42U | 0.581
123 | C12A U55C | 0.366
124 | C12G C33U | 0.405
125 | C12A U62C | 0.338
126 | G11U U69C | 1.05
127 | G11C C63U | 0.416
128 | C12A U53C | 0.232
129 | C12G G19A | 0.137
130 | C12G G19C | 0.0934
131 | C12G G19U | 0.0842
132 | G11C G30U | 0.225
133 | G11U U38A | 0.687
134 | G11U U38G | 0.178
135 | G11U U61C | 0.271
136 | G11C U64G | 0.435
137 | C12G C54G | 0.518
138 | G11A U55C | 0.493
139 | A13C A51C | 0.827
140 | A13C A51U | 0.744
141 | C12G A40C | 0.318
142 | C12U G48A | 0.963
143 | C12U G48C | 0.972
144 | G11A U49C | 0.903

Row | Variant | self-cleavage
145 | C12A G19U | 0.111
146 | C12A G19A | 0.142
147 | C12U A23C | 0.93
148 | C12A A16U | 0.27
149 | G11U C32A | 0.773
150 | C12A G14U | 0.13
151 | C12A G14A | 0.148
152 | C12U U53C | 0.785
153 | G11A U44A | 0.697
154 | C12G U21C | 0.308
155 | C12G G30A | 0.43
156 | C12G G30U | 0.26
157 | G11U C35A | 0.16
158 | A13C C39A | 0.372
159 | A13C C39G | 0.538
160 | C12U U20G | 0.17
161 | C12A A42U | 0.402
162 | A13C G48C | 0.917
163 | A13C G48A | 0.957
164 | A13C G48U | 0.934
165 | A13C G31C | 0.131
166 | A13C C27G | 0.048
167 | C12U A52U | 0.952

Reference: the RNAGym collection of RNA variant scans (doi:10.7554/elife.80360)
